Values of other authors as cited in patent US20100311759A1, “ANTIPARASITIC AGENT FOR FISH AND METHOD OF CONTROLLING PROLIFERATION OF FISH PARASITES” (NIPPON SUISAN KAISHA, LTD., priority 2007, published 2010).

Test system: White spot disease
Conditions: 40 mg per 1 kg of fish body weight orally per day, 28-day experimental period

B1: lactoferrin: marketed as an additive for fisheries; thought to increase non-specific biophylactic ability of host fish (protein, UniProt P24627 20-708, looked up)
Lactotransferrin: APRKNVRWCTISQPEWFKCRRWQWRMKKLGAPSITCVRRAFALECIRAIAEKKADAVTLDGGMVFEAGRDPYKLRPVAAEIYGTKESPQTHYYAVAVVKKGSNFQLDQLQGRKSCHTGLGRSAGWIIPMGILRPYLSWTESLEPLQGAVAKFFSASCVPCIDRQAYPNLCQLCKGEGENQCACSSREPYFGYSGAFKCLQDGAGDVAFVKETTVFENLPEKADRDQYELLCLNNSRAPVDAFKECHLAQVPSHAVVARSVDGKEDLIWKLLSKAQEKFGKNKSRSFQLFGSPPGQRDLLFKDSALGFLRIPSKVDSALYLGSRYLTTLKNLRETAEEVKARYTRVVWCAVGPEEQKKCQQWSQQSGQNVTCATASTTDDCIVLVLKGEADALNLDGGYIYTAGKCGLVPVLAENRKSSKHSSLDCVLRPTEGYLAVAVVKKANEGLTWNSLKDKKSCHTAVDRTAGWNIPMGLIVNQTGSCAFDEFFSQSCAPGADPKSRLCALCAGDDQGLDKCVPNSKEKYYGYTGAFRCLAEDVGDVAFVKNDTVWENTNGESTADWAKNLNREDFRLLCLDGTRKPVTEAQSCHLAVAPNHAVVSRSDRAAHVKQVLLHQQALFGKNGKNCPDKFCLFKSETKNLLFNDNTECLAKLGGRPTYEEYLGTEYVTAIANLKKCSTSPLLEACAFLTR
  infection: no infection was observed
